Reference: patent US20130324474A1 (Eli Lilly, published 2013)
Positions count from the first letter of the chain named. In names and notes the source's numbering stands. Values belong to the binder of their own block, whether it stands above or below them.

What was measured:
[1] = target: T1, Recombinant Human GFRα-1/GDNF Rα-1 Fc Chimera (human, UniProt P56159 25-429); experiment: ELISA, plate-bound human GFRα1-Fc; lower end of the 95% confidence range, n = 14
T1 construct: Purchased Fc chimera; It was captured on protein A in Biacore and coated on the plate in ELISA; also called GFRα1-Fc; recombinant human GFRα1-Fc chimera, carrier-free; not shown: Fc part of a purchased Fc chimera
T1 sequence (looked up): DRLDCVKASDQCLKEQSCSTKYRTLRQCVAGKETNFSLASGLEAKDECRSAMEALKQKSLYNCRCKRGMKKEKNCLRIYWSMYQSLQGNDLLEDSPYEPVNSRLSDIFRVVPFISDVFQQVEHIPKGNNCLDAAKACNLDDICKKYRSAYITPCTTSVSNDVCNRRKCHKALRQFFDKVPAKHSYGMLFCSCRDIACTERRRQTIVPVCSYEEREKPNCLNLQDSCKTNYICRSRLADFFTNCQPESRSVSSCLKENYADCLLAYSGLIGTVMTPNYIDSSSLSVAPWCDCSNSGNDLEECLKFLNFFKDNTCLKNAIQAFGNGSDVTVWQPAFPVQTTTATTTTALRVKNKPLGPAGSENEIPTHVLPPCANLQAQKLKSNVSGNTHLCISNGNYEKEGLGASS
Experimental: (§1) Each well of a 96-well plate (Greiner 655081 Immunobind ELISA plates) is coated with 70 μl of human GFRα1 (recombinant human GFRα1-Fc chimera, carrier-free) at 1 μg/ml in carbonate buffer, pH 9.6. If an irrelevant receptor is coated, it is an irrelevant Fc chimera and is coated at the same concentration as GFRα1. The plates are sealed and incubated at 4° C. overnight. The wells are aspirated and washed twice with washing buffer (20 mM Tris (hydroxymethyl) aminomethane, pH 7.4, 0.15 M NaCl, 0.1% Tween-20), using an automatic plate washer. The plates are blocked with 200 μl blocking buffer per well (3% Carnation Instant milk in the above washing buffer) for at least 1 hour at room temperature. Plates are washed twice with washing buffer. […]
(§2) A 50 μl aliquot of horseradish peroxidase-conjugated streptavidin (Jackson ImmunoResearch, catalog #016-030-084), diluted 1:1000 in blocking buffer, is added to each well and incubated for 20-30 minutes at room temperature. […] The absorbance of the wells is read at 490 nm on a Molecular Devices SpectraMax250 plate reader. The average absorbance for the triplicate wells for each condition are determined, and the resulting values are processed for EC₅₀ calculation with Graph Pad Prism software to provide a 95% confidence range.

[2] = target: T1, Recombinant Human GFRα-1/GDNF Rα-1 Fc …; experiment: ELISA, plate-bound human GFRα1-Fc; upper end of the 95% confidence range, n = 14
Experimental: as §1, §2

[3] = target: T2, Recombinant Rat GFRα-1/GDNF Rα-1 Fc Chimera (rat, UniProt Q62997 25-445); experiment: SPR (Biacore 2000), rat GFRα1-Fc captured on protein A, GDNFv as analyte, 1:1 Langmuir, 25 C
T2 construct: Purchased Fc chimera; not shown: Fc part of a purchased Fc chimera
T2 sequence (looked up): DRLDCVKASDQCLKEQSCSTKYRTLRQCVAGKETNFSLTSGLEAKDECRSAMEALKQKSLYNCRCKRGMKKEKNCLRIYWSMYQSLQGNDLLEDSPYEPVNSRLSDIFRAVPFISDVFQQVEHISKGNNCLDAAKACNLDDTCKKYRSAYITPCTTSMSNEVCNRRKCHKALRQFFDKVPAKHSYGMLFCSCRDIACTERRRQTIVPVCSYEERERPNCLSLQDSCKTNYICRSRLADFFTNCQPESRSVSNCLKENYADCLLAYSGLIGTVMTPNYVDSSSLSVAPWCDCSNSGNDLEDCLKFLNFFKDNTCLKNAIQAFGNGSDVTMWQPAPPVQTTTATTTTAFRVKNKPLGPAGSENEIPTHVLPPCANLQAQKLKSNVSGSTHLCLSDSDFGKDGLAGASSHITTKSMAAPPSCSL
Experimental: A Biacore® 2000 instrument is used to measure the binding kinetics of GDNFv to human and rat GDNF family receptors (GFRα1 and GFRα2). Measurements are performed at 25° C. Samples are dissolved in HBS-EP buffer (150 mM sodium chloride, 3 mM EDTA, 0.005% (w/v) surfactant P-20, pH 7.4). Protein A, Staphylococcus aureus is immobilized on flow cells 1 to 4 of a CM4 sensor chip (GE Healthcare #BR-1005-39) at a level of ˜200 response units (RUs) using amine coupling chemistry to capture GFR Fc chimera (Recombinant Human GFRα-1/GDNF Rα-1 Fc Chimera; Recombinant Human GFRα-2/GDNF Rα-2 Fc Chimera; Recombinant Rat GFRα-1/GDNF Rα-1 Fc Chimera; Recombinant Mouse GFRα-2/GDNF Rα-2 Fc Chimera).
Binding is evaluated using multiple cycles. Each cycle consists of the following steps: 1) injection of about 10 μL of GFR at a concentration of ˜1.0 μg/mL and a flow rate of 10 μL/min., aiming at a capture of 120-150 RUs; 2) injection of 250 μL of GDNFv at a flow rate of 50 μL/min., in a final concentration rage between 10 nM and 0.04 nM followed by […]. for dissociation; and 3) regeneration using about 30 μL of 10 mM glycine hydrochloride, pH 1.5. Association and dissociation rates for each cycle are evaluated using a “1:1 (Langmuir) binding” model in the BIAevaluation software, version 4.1.

[4] = target: T1, Recombinant Human GFRα-1/GDNF Rα-1 Fc …; experiment: ELISA, plate-bound human GFRα1-Fc; lower end of the 95% confidence range, n = 4
Experimental: as §1, §2

[5] = target: T1, Recombinant Human GFRα-1/GDNF Rα-1 Fc …; experiment: ELISA, plate-bound human GFRα1-Fc; upper end of the 95% confidence range, n = 4
Experimental: as §1, §2

- EC50 [1]: 0.3 to 0.6 nM
- EC50 [2]: 0.3 to 0.6 nM
- Kd [3]: 0.044 nM
- koff [3]: 0.00024 s⁻¹
- kon [3]: 5.6e+06 M⁻¹ s⁻¹
B1: CHO-Δ31-GDNF (SEQ ID NO: 8) (ligand)
chain: RGQRGKNRGCVLTAIHLNVTDLGLGYETKEELIFRYCSGSCDAAETTYDKILKNLSRNRRLVSDKVGQACCRPIAFDDDLSFLDDNLVYHILRKHSAKRCGCI
modifications: N-glycosylated at N49 (numbering of mature GDNF)
notes: Expressed in CHO cells; also called CHO-Δ31-GDNFv; WT CHO Δ31-GDNFv

- EC50 [4]: 0.3 to 1.9 nM
- EC50 [5]: 0.3 to 1.9 nM
- Kd [3]: 0.02 nM
- koff [3]: 0.00019 s⁻¹
- kon [3]: 9.4e+06 M⁻¹ s⁻¹
B2: CHO-Δ31-N38Q-D95E-GDNF (SEQ ID NO: 9) (ligand)
chain: B1 chain with N7Q, D64E
modifications: N-glycosylated at N49 (numbering of mature GDNF)
notes: Expressed in CHO cells; also called CHO-Δ31-N38Q-D95E-GDNFv; GDNF variant 2
